Reference: patent US20090104146A1

Biological target: gp130/OSMRβ receptor complex (type II OSM receptor) on NHEK (human) (UniProt P40189)
Test: cell-based or functional assay

Sequence of gp130/OSMRβ receptor complex (type II OSM receptor) on NHEK (human) (P40189 23-918, chain 1 of 2): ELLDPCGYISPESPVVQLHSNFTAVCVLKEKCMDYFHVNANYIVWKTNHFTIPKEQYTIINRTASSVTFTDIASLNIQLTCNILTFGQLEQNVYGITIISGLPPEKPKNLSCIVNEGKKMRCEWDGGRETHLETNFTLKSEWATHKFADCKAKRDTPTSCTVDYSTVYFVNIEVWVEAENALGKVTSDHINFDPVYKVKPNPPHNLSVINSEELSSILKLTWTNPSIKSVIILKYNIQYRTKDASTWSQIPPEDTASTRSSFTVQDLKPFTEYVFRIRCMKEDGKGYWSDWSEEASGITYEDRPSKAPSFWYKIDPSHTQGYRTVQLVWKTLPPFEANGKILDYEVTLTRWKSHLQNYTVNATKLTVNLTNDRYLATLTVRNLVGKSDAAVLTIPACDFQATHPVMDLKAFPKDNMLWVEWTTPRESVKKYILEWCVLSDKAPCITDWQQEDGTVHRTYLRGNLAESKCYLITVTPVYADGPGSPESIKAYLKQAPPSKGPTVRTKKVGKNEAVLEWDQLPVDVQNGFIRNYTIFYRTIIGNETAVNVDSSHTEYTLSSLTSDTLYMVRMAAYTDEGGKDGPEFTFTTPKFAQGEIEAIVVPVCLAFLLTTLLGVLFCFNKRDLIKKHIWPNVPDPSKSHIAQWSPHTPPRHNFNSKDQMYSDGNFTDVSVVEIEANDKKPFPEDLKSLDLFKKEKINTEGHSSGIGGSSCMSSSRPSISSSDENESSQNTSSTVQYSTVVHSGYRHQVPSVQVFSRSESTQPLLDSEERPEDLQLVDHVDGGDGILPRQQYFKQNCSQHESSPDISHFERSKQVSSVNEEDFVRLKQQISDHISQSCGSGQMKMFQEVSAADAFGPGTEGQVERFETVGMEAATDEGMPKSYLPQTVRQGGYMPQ
Sequence of gp130/OSMRβ receptor complex (type II OSM receptor) on NHEK (human) (Q99650 28-979, chain 2 of 2, further chain): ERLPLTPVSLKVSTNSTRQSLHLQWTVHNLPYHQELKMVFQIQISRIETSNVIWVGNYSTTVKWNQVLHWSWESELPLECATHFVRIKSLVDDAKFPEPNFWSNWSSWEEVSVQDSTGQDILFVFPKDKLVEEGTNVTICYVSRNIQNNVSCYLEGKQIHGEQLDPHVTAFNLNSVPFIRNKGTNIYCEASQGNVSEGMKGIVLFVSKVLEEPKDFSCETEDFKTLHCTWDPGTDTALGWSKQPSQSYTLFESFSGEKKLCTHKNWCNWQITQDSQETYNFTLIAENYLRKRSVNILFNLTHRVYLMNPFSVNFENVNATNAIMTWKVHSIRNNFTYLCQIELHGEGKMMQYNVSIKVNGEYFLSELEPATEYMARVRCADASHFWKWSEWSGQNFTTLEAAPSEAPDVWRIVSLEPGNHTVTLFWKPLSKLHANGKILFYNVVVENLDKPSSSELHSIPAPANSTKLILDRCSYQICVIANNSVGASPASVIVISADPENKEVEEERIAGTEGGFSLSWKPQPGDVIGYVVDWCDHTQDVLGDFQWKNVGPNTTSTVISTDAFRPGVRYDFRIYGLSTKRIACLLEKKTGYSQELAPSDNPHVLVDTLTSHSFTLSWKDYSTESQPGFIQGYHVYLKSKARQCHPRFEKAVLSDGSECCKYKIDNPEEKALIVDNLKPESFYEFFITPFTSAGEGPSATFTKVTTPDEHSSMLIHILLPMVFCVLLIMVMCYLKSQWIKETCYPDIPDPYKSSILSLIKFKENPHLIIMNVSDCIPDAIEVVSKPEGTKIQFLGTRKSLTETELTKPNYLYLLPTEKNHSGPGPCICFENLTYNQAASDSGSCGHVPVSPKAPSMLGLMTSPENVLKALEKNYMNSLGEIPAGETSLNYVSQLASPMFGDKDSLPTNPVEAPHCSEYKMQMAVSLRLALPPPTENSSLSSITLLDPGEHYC

tyrosine phosphorylation of STAT3 in NHEK (Western blot): 3 ng/mL
Substance: Human recombinant oncostatin M (OSM) (from UniProt P13725 26-221) (ligand)
